Test results taken from patent publication US7537764.

T1: recombinantly expressed purified soluble WNV E protein (truncated form, strain 382-99) (West Nile virus strain 382-99, UniProt Q9Q6P4 291-696)
T1 construct: also called recombinant WNV-E protein; truncated E protein
T1 sequence: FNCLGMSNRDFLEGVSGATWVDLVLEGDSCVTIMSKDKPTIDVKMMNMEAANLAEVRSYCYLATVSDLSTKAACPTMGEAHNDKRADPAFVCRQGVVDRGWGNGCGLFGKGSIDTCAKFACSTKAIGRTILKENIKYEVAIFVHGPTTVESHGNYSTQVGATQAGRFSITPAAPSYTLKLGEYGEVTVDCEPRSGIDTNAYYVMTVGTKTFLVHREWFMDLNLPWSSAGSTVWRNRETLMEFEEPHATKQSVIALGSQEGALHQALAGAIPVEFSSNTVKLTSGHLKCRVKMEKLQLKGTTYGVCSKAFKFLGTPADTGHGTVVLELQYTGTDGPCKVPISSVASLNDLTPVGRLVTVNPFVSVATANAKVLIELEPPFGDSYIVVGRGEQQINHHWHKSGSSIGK

B1: SC04-283 (scFv)
scFv: EVQLVQSGAEVKKSGESLKISCKGSGYTFNTYWIGWVRQMPGKGLEWMGIIYPGDSDTIYSPSFQGQVTISADKSISTAYLQWSSLKASDSAMYYCARLTFRRGYSGSDSFLPPGDFDYWGQGTLVTVSSGTGGSGGTGSGTGGSTDIQMTQSPSTLSASVGDRVTITCRASQSISSWLAWYQQKPGKAPNLLIYAASSLQSGVPSRFSGSGSGTDFTLTISSLQPDDSATYYCQQYNTYPLTFGGGTKVEIKR
B2: SC04-361 (scFv)
scFv: EVQLVQSGAEVKKPGESLKISCKASGFSFSTYWIGWVRQMPGKGLEWMGIIYPADSDTRYSPSFQGQVTISADKSISTAYLQWSSLKASDTAMYYCARLRGPYYDFWNGYRETHDAFNVWGQGTMVTVSSGTGGSGGTGSGTGGSTDVVMTQSPDSLAVSLGERATINCKSSQNILDNSDNKNFLAWYQQKPGQPPKLLIYWASARESGVPDRFSGSGSGTDFTLTISSLQAEDVALYYCQQYYNTPITFGQGTRLEIKR
B3: SC04-289 (scFv)
scFv: QMQLVQSGAEVKKPGESLRISCKGSGYSFTSNWITWVRQMPGKGLEWMGRIDPSDSYTNYSPSFQGHVTISADKSISTAYLQWSSLKASDTAMYYCARDVVGVGASDYYYYMDVWGKGTTVTVSSGTGGSGGTGSGTGGSTEIVLTQSPGTLSLSPGETATLSCRTSQSVSSSYLGWYQQKPGQAPRLLIYGASIRATGIPARFSGSGSGTEFTLTIDSLQSEDFAVYYCQQYNNWPPITFGQGTRLEIKR
B4: SC04-353 (scFv)
scFv: EVQLVQSGGGVVQPGRSLRLSCAASGFTFSNYAMHWVRQAPGKGLEWVAVISYDGGNKYYADSVKGRFTMSRDNSKNTLYLQMNSLRAEDTAVYYCARDFWSGYSMVDSYYYYMDVWGKGTTVTVSSGTGGSGGTGSGTGGSTETTLTQSPGTLSLSPGERATLSCRASQSVSNTFLAWYQQKPGQAPRLLIYGASSRATGIPDRFSGSGSGTDFTLTISRLEPEDFAAYYCQQYGSSLTFGPGTKVDIKR
B5: SC04-271 (scFv)
scFv: EVQLVETGAEVKKPGESLRISCKGSGYTFNNYWIGWVRQMPGKGLEWMGIIYPGDSDTRYSPSVQGHVTISADKSINTAYLQWSSLKASDTAVYYCARRPGYDYGFYYFDYWGQGTLVTVSSGTGGSGGTGSGTGGSTQSALTQPRSVSGSPGQSVTISCTGTSSDVGGYNYVSWYQHHPGKAPKLMIYDVSNRPLGVSNRFSGSKSGNTASLTISGLQAEDEADYYCSSYTSSSTYVFGTGTHLTVLS
B6: SC04-311 (scFv)
scFv: EVQLVQSGGGVVQPGRSLRLSCVASGFTFSKDAMHWVRQAPGKGLEWVAVISYDGSDKHYADSVKGRVTISRDNSRKTLYLRMDSLRAEDTALYYCARGYNSGHYFDYWGQGTLITVSSGTGGSGGTGSGTGGSTQSVLTQPPSVSAAPGQKVTISCSGTSSNIGDNYVSWYQHLPGTAPKLLIYDNNKRPSGIPDRFSGSKSGTSATLGVTGLQTGDEADYYCGTWDSSLTAVVFGGGTKLTVLG
B7: SC04-325 (scFv)
scFv: QMQLVQSGAEVKKPGSSVKVSCKASGDTFSSYAISWVRQAPGQGLEWMGGIFGTASYAQKFQGRVTITADESTSTAYMELSSLRSEDTAVYYCARGGMATTPGLDYWGQGTLVTVSSGTGGSGGTGSGTGGSTDIQLTQSPDSLAVSLGERATINCKSSQSVLYSSNNKNYLAWYQQKPGQPPKLLIYWASTRESGVPDRFSGSGSGTDFTLTISSLQAEDVAVYYCQQYYSTPLTFGQGTKVEIKR
B8: SC04-374 (scFv)
scFv: QVTLKESGPTLVKPTQTLTLTCTFSGFSLSTSGVGVGWIRQPPGKALEWLAVIYWNDDKLYRPSLKSRLTITKDTSKNQVVLTMTKMDPVDTATYYCAHRHRYYDISGYYRLFSDAFDIWGQGTMVTVSSGTGGSGGTGSGTGGSTQSVVTQPPSVSGAPGQRVTISCTGSSSNIGAGYDVHWYQQLPGTAPKLLIYGNSNRPSGVPDRFSGSKSGTSASLAITGLQAEDEADYYCQSYDSSLSGSVFGGGTKLTVLG
B9: SC04-299 (scFv)
scFv: EVQLVETGGGVVQPGRSLRLSCAASGFTFSGYAMHWVRQAPGKGLDWVAVISYDGSEKYSADSVKGRFTISRDNSKNTLYLQMNSLRAEDTAVYYCAKESGGPIWYKYYGVDVWGQGTTVTVSSGTGGSGGTGSGTGGSTSYVLTQPPSLSAAPRQRVTISCSGSSSNIGNYGVNWYQQLPGKAPKLLIYYDDLLPSGVSDRFSGSKSGTSASLAISGLQSEDEGDYYCAAWDDTLSAWVFGGGTKLTVLG

Tests used:
[1] = target: T1, recombinantly expressed purified …; experiment: phage ELISA on coated recombinant soluble WNV E protein
[2] = target: T2, West Nile virus strain USA99b (strain 385-99), whole virus (West Nile virus strain 385-99 (USA99b)); experiment: phage ELISA on coated whole inactivated WNV
T2 construct: mature

Binder	OD 492 nm [1]	OD 492 nm [2]
B1	0.074 OD	1.21 OD
B2	0.076 OD	
B3	1.39 OD	0.759 OD
B4	0.099 OD	
B5	0.608 OD	0.984 OD
B6	1.54 OD	1.04 OD
B7	1.4 OD	
B8	1.36 OD	
B9	0.072 OD	1.07 OD
